Assay results: US20100143379A1 (priority 2005, published 2010)

Experiments:
CD74 = CD74 phospho-serine sandwich ELISA; assay type: cell-based; conditions: MIF 100 ng/ml, 10 mins; COS-7/CD74+CD44 cell line and wild-type MEFs
Experimental: FIGS. 12A-12E show the phosphoserine content of CD74 and CD44 measured by ELISA. […] The ELISA values represent the mean±SD of triplicate measurements. Experiments were replicated twice. *P<0.02 versus corresponding control (Student's T test, two-tailed). […] Cell lysates were prepared and probed for PKA and PKC using phospho-specific, and total anti-PKA and anti-PKC antibodies.
The observation that the phosphoserine content of CD74 increased only in cells that expressed CD74 and full-length CD44 is consistent with the notion that the MIF-mediated phosphorylation of CD74 is dependent on the activity of the CD44 intracytoplasmic domain.
The serine phosphorylation of CD74 and CD44 was quantified by specific sandwich ELISA (Perez et al. (2003). Nature Immunol 4:1083-92). […] After several washes (0.5% Tween-20 in PBS), 0.2 μg/ml anti-phospho-serine antibody (Hypromatrix) conjugated with horseradish peroxidase was added, and immunoreactivity measured by the TMB reagent (DakoCytomation) and the data analyzed with SpectraMax Plus (Molecular Devices).
Cell lysates were collected and analyzed by immunoblots using a pair of anti-phospho-PICA and anti-(total)-PKA antibodies, a pair of anti-phospho-PKC (all from Cell Signaling) and anti-(total)-PKC (Santa Cruz) antibodies, or a pair of anti-phospho-p56^lck (Cell Signaling) and anti-(total) p56^lck (sc-433, Santa Cruz) antibodies.

ERK-1/2 = ERK-1/2 phosphorylation in murine embryonic fibroblasts and peritoneal macrophages; assay type: cell-based; conditions: wild-type, CD74-KO and CD44-KO cells
Experimental: Whole cell lysates then were prepared and analyzed by Western blotting with specific anti-phospho-ERK-1/2 (p-ERK1/2) or anti-total ERK/1/2 antibodies. […] Peritoneal macrophages were stimulated for 10 mins (Mitchell et al. (1999). J Biol Chem 274:18100-6) and the lysates then analyzed by Western blotting. […] Recombinant, sCD74 was incubated with MN overnight in a 3:1 molar ratio prior to addition to cells for 10 mins. Epidermal growth factor (EGF) was used as a positive control for ERK-1/2 phosphorylation (Yamamoto et al. (2003). Develop Biol 260:512-521). Data shown are representative of three experiments.
Signal Transduction Assays. […] The human CD74 ectodomain (CD74^73-232) was prepared recombinantly in soluble form (sCD74) as described previously (Leng et al. (2003). J Exp Med 197:1467-1476). […] Cells then were harvested and lysed in buffer containing 50 mM Hepes, pH7.5, 150 mM NaCl, 1.5 mM MgCl2, 1 mM EGTA, 1% Glycerol and 1% Triton X-100, and freshly added phosphatase and proteinase inhibitors (1 mM orthovanandate, 10 mM NaF, 10 μg/ml leupeptin, 25 μg/ml aprotinin and 50 μg/ml PMSF). For immunoblotting, 15-20 μg of cell lysate proteins were separated by 10% SDS-PAGE and transferred to PVDF Immobilon-P transfer membranes (Millipore). […]

B1: MIF: macrophage migration inhibitory factor; recombinant mouse or human MIF purified essentially free of endotoxin (protein)
chain: PMFIVNTNVPRASVPDGFLSELTQQLAQATGKPPQYIAVHVVPDQLMAFGGSSEPCALCSLHSIGKIGGAQNRSYSKLLCGLLAERLRISPDRVYINYYDMNAANVGWNNSTFA
B1 was tested, and the “phosphorylation of CD74 (phospho-serine content)” value (CD74) was “increased significantly” and the ERK-1/2 phosphorylation (ERK-1/2) was “induced ERK-1/2 phosphorylation only in wild-type cells”.
